One may read the IC50 as the concentration at which inhibition is half-maximal. A higher IC50 goes with weaker potency in that assay.

Results on 10 molecules are retold here after US20070111265A1, “Ligands for mineralocorticoid receptor (MR) and methods for screening for or designing MR ligands” (Van Andel Research Institute, priority 2005, published 2007).

“Also recorded” adds a separate entry of the source. No end group written: not given here.

The target in one assay is T1, MR (Homo sapiens, UniProt P08235).
T1 construct: receptor expression vector (pRS vector) encoding full-length GR and MR respectively (ATCC); host or cells: Cos-7
The experiment in a line: IC50 (µM). From the text:
Table printed on a drawing sheet, FIG. 3D
Head of the field: IC50 (µM)
The patent's description of the figure: FIG. 3.
First copying reader's note: The head of the sequence column numbers the residue positions relative to the first leucine of the LXXLL motif; the last two rows are protein fragments given as residue ranges.

For the next assay, the target named is T2, MR LBD (Homo sapiens, UniProt P08235, C808S).
T2 construct: made in house; host or cells: E. coli BL21DE3 (pET24a)
T2 sequence (P08235 727-984 C808S): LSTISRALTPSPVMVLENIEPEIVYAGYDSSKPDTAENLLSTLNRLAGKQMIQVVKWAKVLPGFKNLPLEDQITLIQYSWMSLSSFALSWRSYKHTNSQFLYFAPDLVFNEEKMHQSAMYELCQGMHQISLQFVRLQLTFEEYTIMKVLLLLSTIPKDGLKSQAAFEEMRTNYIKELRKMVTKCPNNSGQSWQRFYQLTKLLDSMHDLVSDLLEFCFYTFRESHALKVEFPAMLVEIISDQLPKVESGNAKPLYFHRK
Kind of assay: Peptide profiling: unlabeled peptides compete off SRC2-3 binding to MR (FIG. 1C). The conditions noted are these: unlabeled peptide 500 nM; 20 nM corticosterone or aldosterone. How it is done:
The cofactors that contain a pair of LXXLL motifs with strong binding affinity to MR are boxed. All peptides have identical length of 15 residues except for SRC1-4 motif, which terminates at position +7 relative to the first leucines (L+1) in the LXXLL motif, and for the AR peptides and the corepressor motifs, which are longer than the coactivator motifs. Sequences of peptides are listed in experimental procedures.
(§1) The binding of various peptide motifs to MR was determined by AlphaScreen assays using a hexahistidine detection kit from Perkin-Elmer. MR proteins were prepared as 6×His-GST fusion proteins for the assays.
The unlabeled peptides that were used in FIG. 1C are listed below in Table 2:
MR is the least studied member among the classical steroid hormone receptors and its physiological coactivators have not been clearly documented. To gain insights into which coactivator is physiologically relevant to MR, the inventors performed peptide profiling experiments using a panel of 38 unlabeled peptides to compete off the binding of the third LXXLL motif of SRC2 (also known as TIF2/GRIP1) to MR. […] The strong binding of the SRC1-4 motif and the PGC1 motifs is consistent with previous studies of the binding of LXXLL motifs to oxosteroid receptors (Hultman et al., 2005; Wu et al., 2004).

Assay [1] has as its system MR S810 mutated to leucine or methionine. The following applies: Geller et al., 2000; cited from earlier work.
In assay [2] the target is T3, purified MR LBD/corticosterone complex (Homo sapiens, UniProt P08235, C808S).
T3 construct: made in house; host or cells: E. coli BL21DE3 (pET24a)
T3 sequence (P08235 727-984 C808S): T2 sequence (P08235 727-984 C808S)
Kind of assay: AlphaScreen binding of biotinylated coactivator/corepressor peptides (FIG. 1B). The conditions noted are these: corticosterone-bound MR LBD. How it is done:
(B) Binding of various peptides containing coactivator or corepressor motifs to the purified MR LBD/corticosterone complex as measured by AlphaScreen assays. The background reading with the MR LBD alone is less than 200.
as §1
The biotinylated peptides that were used in FIG. 1B are listed below in Table 1: […]

T1 sequence (P08235 whole entry, looked up): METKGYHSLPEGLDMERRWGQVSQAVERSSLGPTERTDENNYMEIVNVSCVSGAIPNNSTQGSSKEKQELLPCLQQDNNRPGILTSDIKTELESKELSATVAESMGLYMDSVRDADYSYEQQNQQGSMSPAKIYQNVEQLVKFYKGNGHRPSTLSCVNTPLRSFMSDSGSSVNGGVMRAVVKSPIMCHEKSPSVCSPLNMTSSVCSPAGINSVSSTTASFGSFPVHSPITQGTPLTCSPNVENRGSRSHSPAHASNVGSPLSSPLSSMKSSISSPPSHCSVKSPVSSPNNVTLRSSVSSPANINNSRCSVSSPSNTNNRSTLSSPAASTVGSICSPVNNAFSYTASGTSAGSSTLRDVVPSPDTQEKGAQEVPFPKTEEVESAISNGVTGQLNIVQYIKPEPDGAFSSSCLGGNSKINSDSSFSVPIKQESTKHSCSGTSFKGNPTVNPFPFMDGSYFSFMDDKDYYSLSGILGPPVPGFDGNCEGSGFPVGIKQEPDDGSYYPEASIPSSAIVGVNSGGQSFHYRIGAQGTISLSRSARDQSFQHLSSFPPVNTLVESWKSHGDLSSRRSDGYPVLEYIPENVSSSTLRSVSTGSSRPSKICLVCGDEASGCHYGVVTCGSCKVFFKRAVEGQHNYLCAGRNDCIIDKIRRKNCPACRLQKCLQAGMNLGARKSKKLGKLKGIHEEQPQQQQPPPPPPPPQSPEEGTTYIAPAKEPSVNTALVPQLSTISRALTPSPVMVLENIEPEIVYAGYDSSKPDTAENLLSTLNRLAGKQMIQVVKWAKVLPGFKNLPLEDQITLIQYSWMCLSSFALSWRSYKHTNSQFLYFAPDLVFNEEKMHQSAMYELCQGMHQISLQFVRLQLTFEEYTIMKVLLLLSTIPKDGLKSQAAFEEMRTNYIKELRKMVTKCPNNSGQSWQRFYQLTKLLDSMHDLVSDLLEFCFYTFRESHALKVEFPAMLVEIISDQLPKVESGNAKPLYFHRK

With QEKHRILHKLLQNGN [SRC3-2], at MR, the IC50 was found to be 4.6 µM.
In the case of “PRQGSILYSLLTSSK (listed as Homo sapiens) [DAX1-3, 18]”, the “inhibition of SRC2-3 binding to MR” value with MR LBD was “most potent competitors”.
On to `CC(=O)[C@H]1CC[C@H]2[C@@H]3CCC4=CC(=O)CC[C@]4(C)[C@H]3CC[C@]12C` [progesterone], for which, in assay [1], the “activation of S810-mutated MR” value was “activated efficiently; also recorded: allows the receptor to respond”.
For `C[C@]12CCC(=O)C=C1CC[C@@H]1[C@@H]2C(=O)C[C@@]2(C)[C@H]1CC[C@]2(O)C(=O)CO` [cortisone], the “activation of S810-mutated MR” value in assay [1] is listed as “activated efficiently”.
GHSFADPASNLGLEDIIRKALMGSF [NCOR-2]: the “interaction with purified MR LBD” value in assay [2] was “failed to interact”.
As for “GHGEDFSKVSQNPILTSLLQITGN (listed as Homo sapiens) [TRAP220]”, the “interaction with purified MR LBD” value in assay [2] is reported as “weakly”.
The molecule KENNALLRYLLDRDD [SRC3-3] had an IC50 against MR of 1.4 µM.
As for “WAEFSILRELLAQDV (listed as Homo sapiens) [PGC1β-2, 35]”, the “inhibition of SRC2-3 binding to MR” value with MR LBD was “most potent competitors”.
Turning to “SGNLVPDAASKHKQLSELLRGGSG (listed as Homo sapiens) [CBP]”, the “interaction with purified MR LBD” value in assay [2] was “weakly”.
Still for that read-out and setting: in the case of AEEPSLLKKLLLAPA [PGC1] it was “strongly”.
